Assay results from publication PMC3581573.

Target: Flag-HsPRMT5 (UniProt O14744)
Assay: biotinylated peptide pull-down on streptavidin beads
Settings: reference: unmodified H4 peptide; sites S1

“histone H4 1-20 (from UniProt P62805) H4 S1ph peptide” was tested, and the “binding against the reference” value was “lost”.
